Source: IntAct's records for PubMed 31515488

B1: Notch homolog 2 N-terminal-like protein A (Homo sapiens), Q7Z3S9 (parent)
chain: MCVTYHNGTGYCKCPEGFLGEYCQHRDPCEKNRCQNGGTCVAQAMLGKATCRCASGFTGEDCQYSTSHPCFVSRPCLNGGTCHMLSRDTYECTCQVGFTGKECQWTDACLSHPCANGSTCTTVANQFSCKCLTGFTGQKCETDVNECDIPGHCQHGGTCLNLPGSYQCQCLQGFTGQYCDSLYVPCAPSPCVNGGTCRQTGDFTFECNCLPETVRRGTELWERDREVWNGKEHDEN
partner: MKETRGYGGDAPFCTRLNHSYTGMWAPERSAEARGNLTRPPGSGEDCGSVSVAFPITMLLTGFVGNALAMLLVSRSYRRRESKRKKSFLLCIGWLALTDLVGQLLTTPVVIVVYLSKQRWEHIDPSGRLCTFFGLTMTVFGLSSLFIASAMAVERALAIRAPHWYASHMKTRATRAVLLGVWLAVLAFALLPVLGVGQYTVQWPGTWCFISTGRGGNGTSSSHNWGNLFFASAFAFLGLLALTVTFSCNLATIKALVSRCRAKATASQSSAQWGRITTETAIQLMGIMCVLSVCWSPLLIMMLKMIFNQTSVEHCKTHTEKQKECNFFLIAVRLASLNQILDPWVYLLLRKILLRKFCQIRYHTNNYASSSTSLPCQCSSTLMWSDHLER
B2: Fructose-1,6-bisphosphatase 1 (Homo sapiens), P09467 (parent)
chain: MADQAPFDTDVNTLTRFVMEEGRKARGTGELTQLLNSLCTAVKAISSAVRKAGIAHLYGIAGSTNVTGDQVKKLDVLSNDLVMNMLKSSFATCVLVSEEDKHAIIVEPEKRGKYVVCFDPLDGSSNIDCLVSVGTIFGIYRKKSTDEPSEKDALQPGRNLVAAGYALYGSATMLVLAMDCGVNCFMLDPAIGEFILVDKDVKIKKKGKIYSLNEGYARDFDPAVTEYIQRKKFPPDNSAPYGARYVGSMVADVHRTLVYGGIFLYPANKKSPNGKLRLLYECNPMAYVMEKAGGMATTGKEAVLDVIPTDIHQRAPVILGSPDDVLEFLKVYEKHSAQ
partner: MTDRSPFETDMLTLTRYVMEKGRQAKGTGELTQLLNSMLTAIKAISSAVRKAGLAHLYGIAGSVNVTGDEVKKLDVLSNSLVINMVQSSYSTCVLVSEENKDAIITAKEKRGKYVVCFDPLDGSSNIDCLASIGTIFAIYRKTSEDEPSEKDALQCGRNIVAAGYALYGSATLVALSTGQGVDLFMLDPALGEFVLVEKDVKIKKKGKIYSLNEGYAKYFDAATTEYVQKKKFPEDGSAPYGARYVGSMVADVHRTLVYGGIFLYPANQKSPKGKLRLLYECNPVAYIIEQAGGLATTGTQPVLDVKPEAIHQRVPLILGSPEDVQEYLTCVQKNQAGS
B3: Dual specificity protein phosphatase 21 (Homo sapiens), Q9H596 (parent)
chain: MTASASSFSSSQGVQQPSIYSFSQITRSLFLSNGVAANDKLLLSSNRITAIVNASVEVVNVFFEGIQYIKVPVTDARDSRLYDFFDPIADLIHTIDMRQGRTLLHCMAGVSRSASLCLAYLMKYHSMSLLDAHTWTKSRRPIIRPNNGFWEQLINYEFKLFNNNTVRMINSPVGNIPDIYEKDLRMMISM
B4: Hematopoietic prostaglandin D synthase (Homo sapiens), O60760 (parent)
chain: MPNYKLTYFNMRGRAEIIRYIFAYLDIQYEDHRIEQADWPEIKSTLPFGKIPILEVDGLTLHQSLAIARYLTKNTDLAGNTEMEQCHVDAIVDTLDDFMSCFPWAEKKQDVKEQMFNELLTYNAPHLMQDLDTYLGGREWLIGNSVTWADFYWEICSTTLLVFKPDLLDNHPRLVTLRKKVQAIPAVANWIKRRPQTKL
partner: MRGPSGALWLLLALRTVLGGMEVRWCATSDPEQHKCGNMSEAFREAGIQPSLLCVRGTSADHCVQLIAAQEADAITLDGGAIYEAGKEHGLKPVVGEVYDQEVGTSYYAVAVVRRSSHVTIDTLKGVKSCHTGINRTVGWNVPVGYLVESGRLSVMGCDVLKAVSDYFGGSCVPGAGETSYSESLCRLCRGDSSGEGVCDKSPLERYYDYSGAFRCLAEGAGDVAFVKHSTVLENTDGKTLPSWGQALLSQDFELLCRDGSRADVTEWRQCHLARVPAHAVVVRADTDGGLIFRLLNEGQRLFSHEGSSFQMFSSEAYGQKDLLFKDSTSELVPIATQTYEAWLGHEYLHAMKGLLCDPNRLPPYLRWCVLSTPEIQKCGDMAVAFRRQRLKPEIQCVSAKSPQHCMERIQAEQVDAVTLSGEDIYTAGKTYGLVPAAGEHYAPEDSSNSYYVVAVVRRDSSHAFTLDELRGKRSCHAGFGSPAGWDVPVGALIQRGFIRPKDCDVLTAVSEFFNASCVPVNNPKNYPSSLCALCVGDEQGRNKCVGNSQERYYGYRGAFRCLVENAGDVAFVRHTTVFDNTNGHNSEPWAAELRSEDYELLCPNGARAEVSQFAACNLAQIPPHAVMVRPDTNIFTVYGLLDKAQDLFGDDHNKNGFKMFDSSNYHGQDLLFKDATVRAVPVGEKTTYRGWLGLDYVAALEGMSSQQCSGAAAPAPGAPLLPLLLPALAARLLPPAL
B5: Putative pre-mRNA-splicing factor ATP-dependent RNA helicase DHX32 (Homo sapiens), Q7L7V1 (parent)
chain: MEEEGLECPNSSSEKRYFPESLDSSDGDEEEVLACEDLELNPFDGLPYSSRYYKLLKEREDLPIWKEKYSFMENLLQNQIVIVSGDAKCGKSAQVPQWCAEYCLSIHYQHGGVICTQVHKQTVVQLALRVADEMDVNIGHEVGYVIPFENCCTNETILRYCTDDMLQREMMSNPFLGSYGVIILDDIHERSIATDVLLGLLKDVLLARPELKLIINSSPHLISKLNSYYGNVPVIEVKNKHPVEVVYLSEAQKDSFESILRLIFEIHHSGEKGDIVVFLACEQDIEKVCETVYQGSNLNPDLGELVVVPLYPKEKCSLFKPLDETEKRCQVYQRRVVLTTSSGEFLIWSNSVRFVIDVGVERRKVYNPRIRANSLVMQPISQSQAEIRKQILGSSSSGKFFCLYTEEFASKDMTPLKPAEMQEANLTSMVLFMKRIDIAGLGHCDFMNRPAPESLMQALEDLDYLAALDNDGNLSEFGIIMSEFPLDPQLSKSILASCEFDCVDEVLTIAAMVTAPNCFSHVPHGAEEAALTCWKTFLHPEGDHFTLISIYKAYQDTTLNSSSEYCVEKWCRDYFLNCSALRMADVIRAELLEIIKRIELPYAEPAFGSKENTLNIKKALLSGYFMQIARDVDGSGNYLMLTHKQVAQLHPLSGYSITKKMPEWVLFHKFSISENNYIRITSEISPELFMQLVPQYYFSNLPPSESKDILQQVVDHLSPVSTMNKEQQMCETCPETEQRCTLQ
partner: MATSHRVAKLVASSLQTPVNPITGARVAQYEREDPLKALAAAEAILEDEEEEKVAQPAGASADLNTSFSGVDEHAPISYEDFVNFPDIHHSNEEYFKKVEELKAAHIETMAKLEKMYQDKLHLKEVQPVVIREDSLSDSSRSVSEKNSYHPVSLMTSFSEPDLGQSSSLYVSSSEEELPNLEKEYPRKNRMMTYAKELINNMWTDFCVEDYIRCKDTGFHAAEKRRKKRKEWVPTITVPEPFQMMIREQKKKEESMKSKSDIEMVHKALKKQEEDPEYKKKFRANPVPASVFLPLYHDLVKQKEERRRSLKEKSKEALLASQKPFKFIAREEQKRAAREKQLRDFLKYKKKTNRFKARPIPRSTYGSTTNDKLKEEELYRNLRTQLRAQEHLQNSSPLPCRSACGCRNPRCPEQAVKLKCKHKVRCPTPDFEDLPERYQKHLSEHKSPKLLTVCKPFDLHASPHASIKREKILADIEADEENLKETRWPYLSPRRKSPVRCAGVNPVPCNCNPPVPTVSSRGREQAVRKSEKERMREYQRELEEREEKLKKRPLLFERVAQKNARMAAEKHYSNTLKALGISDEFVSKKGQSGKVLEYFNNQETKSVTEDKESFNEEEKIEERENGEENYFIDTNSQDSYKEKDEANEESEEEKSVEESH
B6: Isoform Long of Autophagy protein 5 (Homo sapiens), Q9H1Y0-1 (parent)
chain: MTDDKDVLRDVWFGRIPTCFTLYQDEITEREAEPYYLLLPRVSYLTLVTDKVKKHFQKVMRQEDISEIWFEYEGTPLKWHYPIGLLFDLLASSSALPWNITVHFKSFPEKDLLHCPSKDAIEAHFMSCMKEADALKHKSQVINEMQKKDHKQLWMGLQNDRFDQFWAINRKLMEYPAEENGFRYIPFRIYQTTTERPFIQKLFRPVAADGQLHTLGDLLKEVCPSAIDPEDGEKKNQVMIHGIEPMLETPLQWLSEHLSYPDNFLHISIIPQPTD
partner: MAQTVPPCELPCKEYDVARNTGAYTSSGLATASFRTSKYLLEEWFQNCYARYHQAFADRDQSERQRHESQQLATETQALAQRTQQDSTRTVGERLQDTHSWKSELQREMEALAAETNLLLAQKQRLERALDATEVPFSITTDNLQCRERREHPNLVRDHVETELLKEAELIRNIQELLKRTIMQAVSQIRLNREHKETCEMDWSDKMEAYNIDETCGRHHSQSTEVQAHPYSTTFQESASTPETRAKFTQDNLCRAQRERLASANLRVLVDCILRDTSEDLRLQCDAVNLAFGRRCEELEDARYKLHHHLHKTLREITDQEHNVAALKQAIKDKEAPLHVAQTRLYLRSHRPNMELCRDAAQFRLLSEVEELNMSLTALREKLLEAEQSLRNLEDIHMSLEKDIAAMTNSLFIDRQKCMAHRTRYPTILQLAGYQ

Variants of: B1
Details: with pe2r3_human PTGER3, P43115

Variant	effect of a mutation on the interaction
R74Q	with no effect

Variants of: B2
Details: with FBP2, O00757

Variant	effect of a mutation on the interaction
G260R	disrupting interaction strength

Variants of: B3
Details: with gors2_human GORASP2, Q9H8Y8

Variant	effect of a mutation on the interaction
S18F	with no effect

Variants of: B4
Details: with trfm_human MELTF

Variant	effect of a mutation on the interaction
M128T	disrupting interaction strength

Variants of: B5
Details: with FAM161A

Variant	effect of a mutation on the interaction
D301A	with no effect

Variants of: B6
Details: with tekt4_human TEKT4, Q8WW24

Variant	effect of a mutation on the interaction
K58M	with no effect
